Data on 6 molecules can be found in article PMC8682754 (Nucleic Acids Research, 2021).

Like-named read-outs stand apart in the source and are kept apart here.

In series [1] the target is SegB (Sulfolobus solfataricus). The experiment in a line: SEC.
Series [2] has as its target SegA (Sulfolobus solfataricus).
Series [3] has as its target T1, SegA (Saccharolobus solfataricus, UniProt Q981B3).
T1 sequence (Q981B3 1-220): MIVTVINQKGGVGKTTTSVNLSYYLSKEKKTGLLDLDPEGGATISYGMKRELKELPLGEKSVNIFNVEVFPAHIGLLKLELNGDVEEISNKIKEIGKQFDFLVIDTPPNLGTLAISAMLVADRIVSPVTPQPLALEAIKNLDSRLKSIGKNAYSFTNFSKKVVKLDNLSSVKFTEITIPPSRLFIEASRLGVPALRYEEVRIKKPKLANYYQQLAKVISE
The experiment in a line: X-ray crystal structure. Format: binding. Particulars: nucleotide pocket.

Series [4] has as its target SegA (Sulfolobus solfataricus). The experiment in a line: SEC. (Size exclusion chromatography separates by hydrodynamic size, large species first.)
The target in series [5] is T2, SegA (Sulfolobus solfataricus, UniProt Q981B3 1-220).
T2 sequence: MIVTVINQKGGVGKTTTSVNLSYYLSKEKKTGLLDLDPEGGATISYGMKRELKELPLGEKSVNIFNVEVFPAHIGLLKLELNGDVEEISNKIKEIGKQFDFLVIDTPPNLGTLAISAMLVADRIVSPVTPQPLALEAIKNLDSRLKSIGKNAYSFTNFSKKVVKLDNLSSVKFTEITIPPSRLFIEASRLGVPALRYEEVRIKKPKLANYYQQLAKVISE
The experiment in a line: fluorescence polarization. (In general: Fluorescence polarisation rises when a labelled molecule tumbles more slowly, as on binding a larger partner.)

The target of series [6] is T2, SegA. The experiment in a line: fluorescence polarization. This is another data set of the same source.
In series [7] the target is T2, SegA. The experiment in a line: fluorescence polarization. This is another data set of the same source.
Series [8] addresses T3, SegBΔ33 (Sulfolobus solfataricus, UniProt Q981B2 34-109, del1-33).
T3 sequence: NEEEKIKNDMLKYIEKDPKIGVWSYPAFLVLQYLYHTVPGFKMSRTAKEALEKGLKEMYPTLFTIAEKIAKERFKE
The experiment in a line: crystal structure.

Series [9] concerns the target T3, SegBΔ33. The experiment in a line: fluorescence polarization.
The target of a further series is T4, SegB (Sulfolobus solfataricus, UniProt Q981B2 1-109).
T4 sequence: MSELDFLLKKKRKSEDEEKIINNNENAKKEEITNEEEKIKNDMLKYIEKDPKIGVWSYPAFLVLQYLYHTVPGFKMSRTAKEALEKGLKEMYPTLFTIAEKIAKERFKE
The experiment in a line: fluorescence polarization.

A further series deals with T5, SegA-K14Q (Sulfolobus solfataricus, UniProt Q981B3 1-220, K14Q).
T5 sequence: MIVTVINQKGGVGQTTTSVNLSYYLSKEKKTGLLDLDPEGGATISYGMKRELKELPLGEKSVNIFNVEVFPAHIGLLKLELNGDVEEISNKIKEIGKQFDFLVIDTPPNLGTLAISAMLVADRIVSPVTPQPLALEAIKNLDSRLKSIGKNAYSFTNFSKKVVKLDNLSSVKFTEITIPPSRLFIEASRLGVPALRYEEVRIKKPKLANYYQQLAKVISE
The experiment in a line: fluorescence polarization.

The target of the next series is T6, SegA-G10V (Sulfolobus solfataricus, UniProt Q981B3 1-220, G10V).
T6 sequence: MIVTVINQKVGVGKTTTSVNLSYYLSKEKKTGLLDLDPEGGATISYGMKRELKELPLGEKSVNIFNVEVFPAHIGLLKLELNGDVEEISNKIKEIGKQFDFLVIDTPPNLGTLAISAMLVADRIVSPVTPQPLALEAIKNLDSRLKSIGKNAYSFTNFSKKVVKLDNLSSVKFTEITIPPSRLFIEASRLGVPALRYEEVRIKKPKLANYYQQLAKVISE
The experiment in a line: fluorescence polarization.

For a further series, the target named is T7, SegA-Q131A/F158A (Sulfolobus solfataricus, UniProt Q981B3 1-220, Q131A;F158A).
T7 sequence: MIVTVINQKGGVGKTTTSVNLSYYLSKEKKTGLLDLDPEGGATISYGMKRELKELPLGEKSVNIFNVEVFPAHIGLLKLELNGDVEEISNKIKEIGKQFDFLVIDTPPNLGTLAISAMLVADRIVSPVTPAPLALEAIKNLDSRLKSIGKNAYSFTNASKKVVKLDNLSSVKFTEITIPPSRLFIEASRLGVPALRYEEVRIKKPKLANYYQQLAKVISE
The experiment in a line: fluorescence polarization.

Another series addresses T8, SegA-Q131A (Sulfolobus solfataricus, UniProt Q981B3 1-220, Q131A).
T8 sequence: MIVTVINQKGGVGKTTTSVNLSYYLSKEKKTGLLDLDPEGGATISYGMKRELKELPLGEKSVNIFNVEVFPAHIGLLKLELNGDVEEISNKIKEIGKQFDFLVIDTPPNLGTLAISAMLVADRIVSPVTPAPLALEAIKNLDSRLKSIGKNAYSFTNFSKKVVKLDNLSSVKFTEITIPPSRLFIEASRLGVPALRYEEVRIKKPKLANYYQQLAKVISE
The experiment in a line: fluorescence polarization.

In turn, SegB (natural protein) gave a stoichiometry N in [1] of 2. For the same molecule, in series [2], the increase of SegA ATPase activity upon addition of both SegB and S1 DNA worked out at 1000 fold.

As for `Nc1ncnc2c1ncn2[C@@H]1O[C@H](COP(=O)(O)OP(=O)(O)NP(=O)(O)O)[C@@H](O)[C@H]1O` [AMPPNP, adenosine 5′-(β,γ-imido)triphosphate], the X-ray crystal structure result on SegA [3] is given as “We observed AMPPNP inside the nucleotide binding pocket”.

Take SegA (enzyme): the stoichiometry N in series [4] was 2.

B1: 24-bp nsDNA (dsDNA)
DNA 1: AGGGTGTTCCACGTGAAACAGGGA
DNA 2: TCCCTGTTTCACGTGGAACACCCT
As to B1, the values for the Kd in the series with SegA [5], with SegA [6] and with SegA [7] were 240 nM, 450 nM and 710 nM, respectively.

B2: 21-bp S1 DNA (dsDNA)
DNA 1: ACGTAGAAGAGTCTAGACTGA
DNA 2: CAGTCTAGACTCTTCTACGTA
As to B2, the binding result with SegBΔ33 [8] is recorded as “binds”.

B3: 23-bp S1 DNA (dsDNA)
DNA 1: TACGTAGAAGAGTCTAGACTGAC
DNA 2: TCAGTCTAGACTCTTCTACGTAG
Turning to B3, the figures for the Kd in the series with SegBΔ33 [9] and in the series with SegB were 280 nM and 180 nM, respectively. Moreover, the binding result was “binds” with SegA-K14Q, “binds” with SegA-G10V, “no binding” with SegA-Q131A/F158A and “no binding” with SegA-Q131A.

The stoichiometry N is the number of molecules, sites or subunits per partner or assembly. As usually defined, the Kd is the free concentration of one partner at which half of the binding sites on the other are occupied at equilibrium, for simple one-to-one binding.
